From the supplement of paper PMC7877785
± gives the uncertainty stated by the source.

Test: self-splicing fitness, log relative to wild type (ln ratio); higher = more splicing; Tetrahymena group I intron in knt gene, E. coli kanamycin selection, DiMSum; sequences stand for … in CUCUCU…GGAGGGAAAAGUUAUCAGGCAUGCACCUGGUAGCUAGUCUUUAAACCAAUAGAUUGCAUCGGUUUAAAAGGCAAGACCGUCAAAUUGCGGGAAAGGGGUCAACAGCCGUUCAGUACCAAGUCUCAGGGGAAACUUUGAGAUGGCCUUGCAAAGGGUAUGGUAAUAAGCUGACGGACAUGGUCCUAACCACGCAGCCAAGUCCUAAGUCAACAGAUCUUCUGUUGAUAUGGAUGCAGUUCACAGACUAAAUGUCGGUCGGGGAAGAUGUAUUCUUCUCAUAAGAUAUAGUCGGACCUCUCCUUAAUGGGAGCUAGCGGAUGAAGUGAUGCAACACUGGAGCCGCUGGGAACUAAUUUGUAUGCGAAAGUAUAUUGAUUAGUUUUGGAGUACUCGUGGUCG
Outline: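 Six replicate transformations of E. coli BL21(DE3) with a pET-22b(+) library were grown overnight at 37°C or 30°C. The library randomised all eight P1ex-region intron nucleotides, the intron lying in the knt kanamycin-resistance gene, and plates were LB agar with or without 25 μg/mL kanamycin plus 100 μg/mL carbenicillin, 50 μM IPTG and 0.2% rhamnose. Pooled colonies were amplicon-sequenced on an Illumina HiSeq 2500, and fitness is the DiMSum error-weighted combination of wild-type-normalised replicate fold changes, kanamycin versus none.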

Row | Sequence | self-splicing fitness (ln) (30 °C) | self-splicing fitness (ln) (37 °C)
1 | ACCCAGCAAUAUUACGUAAG | -1.13 ± 0.049 | -0.47 ± 0.069
2 | AGGUAGCAAUAUUACGGUCA | -0.279 ± 0.014 | 0.00808 ± 0.033
3 | CGGUAGCAAUAUUACGUUUA | -3.46 ± 0.2 | -2.03 ± 0.13
4 | CCAUAGCAAUAUUACGGCAG | -2.02 ± 0.14 | -1.34 ± 0.17
5 | AUCCAGCAAUAUUACGCAUA | -1.19 ± 0.12 | -0.443 ± 0.12
6 | ACGUAGCAAUAUUACGGCGU | -3.88 ± 0.14 | -2.48 ± 0.15
7 | UUGUAGCAAUAUUACGUCGU | -3.78 ± 0.26 | -2.44 ± 0.2
8 | AGAUAGCAAUAUUACGCUCU | -3.31 ± 0.23 | -1.46 ± 0.21
9 | AUAGAGCAAUAUUACGUAUG | -3.22 ± 0.17 | -0.602 ± 0.14
10 | AAAUAGCAAUAUUACGCAGA | -2.07 ± 0.26 | –
11 | CUGUAGCAAUAUUACGGUGC | -3.58 ± 0.2 | -2.77 ± 0.19
12 | CGGAAGCAAUAUUACGGGGC | -2.49 ± 0.19 | -2.71 ± 0.26
13 | ACUUAGCAAUAUUACGUCGG | -2.34 ± 0.14 | -1.59 ± 0.17
14 | GAGAAGCAAUAUUACGCGUU | -2.08 ± 0.23 | -0.752 ± 0.18
15 | UGACAGCAAUAUUACGUAAU | -2.19 ± 0.099 | -0.915 ± 0.15
16 | GUCGAGCAAUAUUACGUCAG | -3.08 ± 0.16 | -2.98 ± 0.19
17 | UCAUAGCAAUAUUACGAGGC | -2.86 ± 0.35 | -1.44 ± 0.2
18 | GUGAAGCAAUAUUACGGAAC | 0.76 ± 0.34 | –
19 | CCGAAGCAAUAUUACGUAUG | -0.869 ± 0.077 | 0.0157 ± 0.1
20 | AUGGAGCAAUAUUACGUGUG | – | -2.69 ± 0.24
21 | GGGUAGCAAUAUUACGGCCA | -0.214 ± 0.16 | -0.498 ± 0.24
22 | CAUAAGCAAUAUUACGAAGC | -3.09 ± 0.44 | –
23 | AGGUAGCAAUAUUACGGCAA | -0.557 ± 0.017 | -0.339 ± 0.034
24 | AACGAGCAAUAUUACGGGCU | -3.63 ± 0.23 | -2.49 ± 0.22
25 | UGAGAGCAAUAUUACGGCCA | -1.63 ± 0.25 | –

Row | Sequence | self-splicing fitness (ln) (30 °C) | self-splicing fitness (ln) (37 °C)
26 | GGAAAGCAAUAUUACGCCAA | -2.36 ± 0.41 | -0.527 ± 0.29
27 | UACGAGCAAUAUUACGAAUU | -4.2 ± 0.46 | -3.21 ± 0.39
28 | GGUCAGCAAUAUUACGAACG | 0.0341 ± 0.039 | 0.332 ± 0.057
29 | CAUCAGCAAUAUUACGGUCC | -1.37 ± 0.2 | -0.885 ± 0.29
30 | ACACAGCAAUAUUACGGAUC | -2.94 ± 0.12 | -2.1 ± 0.15
31 | UAGAAGCAAUAUUACGUUGU | -4.33 ± 0.18 | -2.47 ± 0.14
32 | AGACAGCAAUAUUACGGGAG | -3.93 ± 0.16 | -2.89 ± 0.17
33 | AUACAGCAAUAUUACGACAU | 0.131 ± 0.011 | 0.288 ± 0.032
34 | CAAGAGCAAUAUUACGAAAA | – | -2.78 ± 0.38
35 | UCUCAGCAAUAUUACGAGUU | -2.32 ± 0.11 | -1.13 ± 0.099
36 | UCUCAGCAAUAUUACGUCUG | -4.98 ± 0.45 | -2.82 ± 0.25
37 | GACGAGCAAUAUUACGGUUC | – | -3.11 ± 0.47
38 | CAAUAGCAAUAUUACGCGAC | -2.2 ± 0.17 | -2.54 ± 0.38
39 | UCUCAGCAAUAUUACGCUCU | -3.26 ± 0.26 | -2.68 ± 0.41
40 | GAAGAGCAAUAUUACGCCGU | -2.88 ± 0.44 | -2.96 ± 0.43
41 | UACGAGCAAUAUUACGGUAA | -1.82 ± 0.37 | -0.747 ± 0.28
42 | UAUAAGCAAUAUUACGCAUC | -3.74 ± 0.2 | -2.38 ± 0.17
43 | GAGAAGCAAUAUUACGCGGC | -3.03 ± 0.23 | -0.0876 ± 0.18
44 | GCUCAGCAAUAUUACGGCUA | -0.707 ± 0.13 | -0.758 ± 0.12
45 | AAGGAGCAAUAUUACGCUGA | -3.54 ± 0.23 | -1.44 ± 0.15
46 | AGACAGCAAUAUUACGAUCU | -2.62 ± 0.12 | -0.863 ± 0.1
47 | ACCUAGCAAUAUUACGCGCA | -0.569 ± 0.08 | -0.709 ± 0.087
48 | UGGUAGCAAUAUUACGUGCG | -0.612 ± 0.12 | -0.415 ± 0.15
49 | UCUCAGCAAUAUUACGAUUU | -1.99 ± 0.093 | -1.1 ± 0.12
50 | UCAUAGCAAUAUUACGUAAG | -1.66 ± 0.1 | -1.91 ± 0.15
